Read-outs that look alike come from different tables or passages of the source.
Tests used:
Assay in all cases: BLI (Octet), antibody on AHC sensor
[1] = target: T1, recombinant human ASM protein (human, UniProt P17405 47-630)
T1 construct: Recombinant human ASM in solution; also called acid sphingomyelinase (ASM) protein
T1 sequence: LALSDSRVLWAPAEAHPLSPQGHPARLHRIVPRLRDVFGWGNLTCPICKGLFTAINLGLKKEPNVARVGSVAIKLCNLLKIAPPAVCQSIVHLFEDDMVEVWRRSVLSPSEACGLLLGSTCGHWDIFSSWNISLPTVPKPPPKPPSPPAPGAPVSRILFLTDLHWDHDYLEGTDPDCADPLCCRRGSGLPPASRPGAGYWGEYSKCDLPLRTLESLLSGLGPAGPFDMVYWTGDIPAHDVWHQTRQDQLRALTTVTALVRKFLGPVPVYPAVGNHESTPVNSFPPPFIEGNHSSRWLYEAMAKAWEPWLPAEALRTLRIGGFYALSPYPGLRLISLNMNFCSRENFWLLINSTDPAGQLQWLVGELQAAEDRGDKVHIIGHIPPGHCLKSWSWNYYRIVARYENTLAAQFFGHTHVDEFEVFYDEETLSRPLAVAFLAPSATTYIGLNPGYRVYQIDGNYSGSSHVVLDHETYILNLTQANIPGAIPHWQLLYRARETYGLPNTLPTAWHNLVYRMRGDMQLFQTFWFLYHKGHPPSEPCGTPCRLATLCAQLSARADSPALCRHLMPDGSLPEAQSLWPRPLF
Protocol: (§1) The binding affinity, to the ASM protein, of the produced antibodies specifically binding to the ASM protein and the interactive dynamics therebetween were measured using an Octet® QK384 system (Pall Life Sciences).
(§2) First, an antibody specifically binding to the ASM protein produced in Example 1 was captured using an anti-human IgG Fc capture (AHC) biosensor, and 1.25, 2.5, 5, 10, or 20 nM recombinant human ASM protein solution was added thereto. […] The association constant (Kₐ), dissociation constant (Kd), and equilibrium dissociation constant (KD) for each antibody were determined using Octet® analysis software (Pall Life® Sciences). As a result, the binding affinities, to the human ASM protein, of the antibodies with mutations in the heavy chain CDR regions of the antibody #9104 as depicted in Table 1 are shown in Table 5, and the binding affinities, to the human ASM protein, of the antibodies with mutations of the light chain CDR regions in the antibody #9104 as depicted in Table 2 are shown in Table 6.

[2] = target: T1, recombinant human ASM protein; remark: listed apart in the source
Protocol: as §1, §2

[3] = target: T1, recombinant human ASM protein; remark: listed apart in the source

B1: #9104 (antibody, V domains shown)
VH: EVQLLESGGGLVQPGGSLRLSCAASGFTFSNYYMSWVRQAPGKGLEWVSGIYYGSGNIYYADSVKGRFTISRDNSKNTLYLQMNSLRAEDTAVYYCARDTPGFDYWGQGTLVTVSS
VL: QSVLTQPPSASGTPGQRVTISCTGSSSNIGNNAVNWYQQLPGTAPKLLIYYDSHRPSGVPDRFSGSKSGTSASLAISGLRSEDEADYYCGAWDYSLSAYVFGGGTKLTVLG
notes: Parental antibody; also called antibody #9104
B1 gave a Kd [1] of 2.25 nM, a koff [1] of 0.000873 s⁻¹ and a kon [1] of 389000 M⁻¹ s⁻¹. The Kd [2] was 2.25 nM, the koff [2] was 0.000873 s⁻¹ and the kon [2] was 389000 M⁻¹ s⁻¹. For the same binder, the Kd [3] was 2.19 nM, the koff [3] was 0.000855 s⁻¹ and the kon [3] was 391000 M⁻¹ s⁻¹.

Reference: patent US20260201064A1 (ISU ABXIS, published 2026)
